According to patent CN114028561A:

Target: 天然TSLP
Experiment: cell-based or functional assay

IC50 of inhibition of natural TSLP-induced STAT5 phosphorylation in SW756-STAT5-Luciferase reporter cells: 1.45 ng/mL
Substance: Tezepelumab (antibody)
